Results reported in the supplement of paper PMC10724198.
± gives the standard deviation of the averaged measurements.

Legend:
Saccharomyces cerevisiae [1] = assay: protein stability index of tFT-peptide fusion (C-terminal peptide) (PSI (0-1 scale)); higher = more stable (slower turnover)
Experimental: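 MPS profiling in S. cerevisiae of the tFT-X12 degron library: putative degron peptides plus stable controls, 12 aa, fused to the C-terminus of a sfGFP-mCherry timer. Cells are FACS-sorted into 8 mCherry/sfGFP bins and deep-sequenced. PSI runs from 0 (unstable) to 1 (stable). Backgrounds are wild type, das1Δ and doa10Δ at 30 °C, and wild type, das1Δ, cdc34-1 and cdc53-1 at 37 °C; 2-3 technical replicates each.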

Saccharomyces cerevisiae [2] = assay: as above; conditions: genetic background: wild type; temperature: 30 C
[3] = genetic background: cdc34-1, temperature: 37 C
[4] = genetic background: cdc53-1, temperature: 37 C
[5] = genetic background: das1 deletion, temperature: 30 C
[6] = genetic background: das1 deletion, temperature: 37 C
[7] = genetic background: doa10 deletion, temperature: 30 C
[8] = genetic background: wild type, temperature: 30 C
[9] = genetic background: wild type, temperature: 37 C
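Also: PSI is a weighted mean of sequencing reads over stability bins, variants kept only with over 10 reads, mCherry proximal and sfGFP distal, peptide attached via GGGS linker.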

Sequence | protein stability index (Saccharomyces cerevisiae [1]; [3]) | protein stability index (Saccharomyces cerevisiae [1]; [4]) | protein stability index (Saccharomyces cerevisiae [1]; [5]) | protein stability index (Saccharomyces cerevisiae [1]; [6]) | protein stability index (Saccharomyces cerevisiae [1]; [7]) | protein stability index (Saccharomyces cerevisiae [1]; [8]) | protein stability index (Saccharomyces cerevisiae [1]; [9]) | protein stability index (Saccharomyces cerevisiae [2])
VIGFGEVWIRCV | 0.358 ± 0.018 | 0.57 ± 0.058 | 0.435 ± 0.025 | 0.619 ± 0.023 | 0.0708 ± 0.013 | 0.0831 ± 0.01 | 0.0868 ± 0.013 | 0.141 ± 0.0034
WLLVVCRGLVFR | 0.227 ± 0.0051 | 0.228 ± 0.024 | 0.25 ± 0.036 | 0.4124 ± 0.0027 | 0.329 ± 0.023 | 0.236 ± 0.022 | 0.405 ± 0.018 | 0.319 ± 0.046
PSPRLSLPPRLP | 0.631 ± 0.01 | 0.729 ± 0.029 | 0.677 ± 0.016 | 0.731 ± 0.017 | 0.71 ± 0.037 | 0.686 ± 0.024 | 0.6948 ± 0.002 | 0.737 ± 0.022
PSRLSFALLFHL | 0.6483 ± 0.00029 | 0.682 ± 0.017 | 0.645 ± 0.018 | 0.7268 ± 0.0049 | 0.395 ± 0.025 | 0.406 ± 0.039 | 0.545 ± 0.0058 | 0.49 ± 0.025
VLVVVAFVALPR | 0.264 ± 0.0083 | 0.41 ± 0.053 | 0.285 ± 0.015 | 0.485 ± 0.035 | 0.275 ± 0.01 | 0.282 ± 0.032 | 0.461 ± 0.031 | 0.372 ± 0.016
FGEDFCHLLWCC | 0.623 ± 0.033 | 0.713 ± 0.021 | 0.583 ± 0.026 | 0.725 ± 0.011 | 0.347 ± 0.0051 | 0.374 ± 0.027 | 0.542 ± 0.018 | 0.442 ± 0.014
EFEIALTLIRSI | 0.665 ± 0.026 | 0.733 ± 0.0039 | 0.593 ± 0.01 | 0.726 ± 0.011 | 0.304 ± 0.009 | 0.361 ± 0.055 | 0.572 ± 0.031 | 0.49 ± 0.057
RGVRALFLLLSF | 0.493 ± 0.042 | 0.51346 ± 1.4e-05 | 0.392 ± 0.039 | 0.575 ± 0.011 | 0.264 ± 0.0047 | 0.272 ± 0.016 | 0.45 ± 0.02 | 0.375 ± 0.059
VCVFNLTLVGTH | 0.421 ± 0.05 | 0.462 ± 0.018 | 0.347 ± 0.027 | 0.449 ± 0.0089 | 0.358 ± 0.028 | 0.343 ± 0.018 | 0.4341 ± 0.0033 | 0.366 ± 0.023
VGCHISAFSDLI | 0.699 ± 0.022 | 0.744 ± 0.043 | 0.66 ± 0.023 | 0.752 ± 0.011 | 0.66 ± 0.037 | 0.665 ± 0.032 | 0.7489 ± 0.0017 | 0.762 ± 0.017
WVVVLFAYRGLR | 0.57 ± 0.026 | 0.519 ± 0.12 | 0.362 ± 0.031 | 0.57 ± 0.038 | 0.323 ± 0.02 | 0.379 ± 0.037 | 0.559 ± 0.041 | 0.458 ± 0.088
IKIQPKKRISLI | 0.658 ± 0.056 | 0.707 ± 0.058 | 0.632 ± 0.039 | 0.702 ± 0.017 | 0.155 ± 0.0043 | 0.174 ± 0.043 | 0.391 ± 0.031 | 0.299 ± 0.0067
FLCLLFYLSFFS | 0.55 ± 0.018 | 0.5422 ± 4.9e-05 | 0.404 ± 0.028 | 0.572 ± 0.0078 | 0.378 ± 0.021 | 0.391 ± 0.021 | 0.5482 ± 0.0007 | 0.415 ± 0.029
RLFVRIQLSLLF | 0.313 ± 0.036 | 0.351 ± 0.012 | 0.31 ± 0.025 | 0.398 ± 0.0092 | 0.33 ± 0.0035 | 0.265 ± 0.033 | 0.3506 ± 0.00077 | 0.351 ± 0.0049
FPSLLFALFLFI | 0.481 ± 0.046 | 0.502 ± 0.0056 | 0.436 ± 0.027 | 0.5271 ± 0.00065 | 0.4401 ± 0.0013 | 0.415 ± 0.036 | 0.501 ± 0.018 | 0.475 ± 0.017
IVRDTECGIFYR | 0.689 ± 0.05 | 0.75 ± 0.021 | 0.642 ± 0.016 | 0.735 ± 0.023 | 0.6512 ± 0.0058 | 0.6662 ± 0.006 | 0.723 ± 0.021 | 0.731 ± 0.013
NCMGLLMPLLIT | 0.437 ± 0.024 | 0.391 ± 0.0086 | 0.378 ± 0.039 | 0.504 ± 0.019 | 0.2688 ± 0.00028 | 0.254 ± 0.037 | 0.382 ± 0.012 | 0.353 ± 0.0039
VLWVYLFLFVIF | 0.266 ± 0.04 | 0.291 ± 0.033 | 0.248 ± 0.022 | 0.346 ± 0.0079 | 0.235 ± 0.025 | 0.211 ± 0.019 | 0.325 ± 0.019 | 0.255 ± 0.05
FPFVYRSVLLFF | 0.392 ± 0.052 | 0.484 ± 0.012 | 0.411 ± 0.033 | 0.577 ± 0.011 | 0.1059 ± 0.00044 | 0.0991 ± 0.021 | 0.216 ± 0.029 | 0.177 ± 0.089
CMLPWPILLCPF | 0.322 ± 0.0044 | 0.329 ± 0.023 | 0.391 ± 0.024 | 0.469 ± 0.023 | 0.517 ± 0.022 | 0.389 ± 0.0084 | 0.456 ± 0.03 | 0.46 ± 0.0055

Sequence | protein stability index (Saccharomyces cerevisiae [1]; [3]) | protein stability index (Saccharomyces cerevisiae [1]; [4]) | protein stability index (Saccharomyces cerevisiae [1]; [5]) | protein stability index (Saccharomyces cerevisiae [1]; [6]) | protein stability index (Saccharomyces cerevisiae [1]; [7]) | protein stability index (Saccharomyces cerevisiae [1]; [8]) | protein stability index (Saccharomyces cerevisiae [1]; [9]) | protein stability index (Saccharomyces cerevisiae [2])
LVLSVWFFNCTS | 0.485 ± 0.0093 | 0.569 ± 0.021 | 0.422 ± 0.032 | 0.573 ± 0.022 | 0.277 ± 0.0063 | 0.283 ± 0.039 | 0.5196 ± 0.0025 | 0.424 ± 0.021
WFSAGSCRWVLC | 0.58 ± 0.061 | 0.71 ± 0.023 | 0.543 ± 0.012 | 0.709 ± 0.013 | 0.126 ± 0.0071 | 0.1431 ± 0.00041 | 0.321 ± 0.027 | 0.24 ± 0.0076
IFLCRNGAVFIC | 0.398 ± 0.07 | 0.7987 ± 0.0065 | 0.733 ± 0.016 | 0.872 ± 0.019 | 0.0808 ± 0.021 | 0.0798 ± 0.016 | 0.0995 ± 0.012 | 0.158 ± 0.015
ASCFFLFVLRVF | 0.0589 ± 0.0071 | 0.113 ± 0.0091 | 0.169 ± 0.016 | 0.271 ± 0.0072 | 0.13 ± 0.0043 | 0.112 ± 0.017 | 0.14 ± 0.019 | 0.233 ± 0.041
VPRGAALIFLCF | 0.574 ± 0.043 | 0.646 ± 0.025 | 0.53 ± 0.036 | 0.6215 ± 0.0013 | 0.449 ± 0.025 | 0.464 ± 0.023 | 0.582 ± 0.0063 | 0.517 ± 0.055
FLVVSSVGFPLL | 0.676 ± 0.017 | 0.73 ± 0.0085 | 0.626 ± 0.018 | 0.729 ± 0.027 | 0.618 ± 0.011 | 0.628 ± 0.014 | 0.714 ± 0.014 | 0.467 ± 0.027
GNRDLVNTSVEG | 0.679 ± 0.029 | 0.721 ± 0.011 | 0.619 ± 0.045 | 0.715 ± 0.051 | 0.6331 ± 0.006 | 0.633 ± 0.033 | 0.6989 ± 0.0025 | 0.547 ± 0.17
VVFWFPFVLRCC | 0.0644 ± 0.019 | 0.0927 ± 0.0061 | 0.193 ± 0.03 | 0.2959 ± 0.0026 | 0.0639 ± 0.0037 | 0.0509 ± 0.0053 | 0.072 ± 0.034 | 0.065 ± 0.017
GFVCFIHLFLCF | 0.3496 ± 0.0027 | 0.365 ± 0.011 | 0.334 ± 0.027 | 0.425 ± 0.027 | 0.471 ± 0.045 | 0.316 ± 0.0089 | 0.367 ± 0.0056 | 0.407 ± 0.04
SVSFFSLCTSSL | 0.511 ± 0.033 | 0.596 ± 0.006 | 0.506 ± 0.023 | 0.541 ± 0.011 | 0.521 ± 0.033 | 0.507 ± 0.02 | 0.511 ± 0.021 | 0.487 ± 0.012
NAGSHHAAVKLG | 0.664 ± 0.064 | 0.74 ± 0.027 | 0.6411 ± 0.0016 | 0.7163 ± 0.001 | 0.222 ± 0.018 | 0.266 ± 0.023 | 0.502 ± 0.012 | 0.399 ± 0.06
GGRLGRAGGGGR | 0.633 ± 0.026 | 0.7243 ± 0.0029 | 0.642 ± 0.024 | 0.7168 ± 0.00089 | 0.66 ± 0.026 | 0.6472 ± 0.0025 | 0.68996 ± 0.00034 | 0.639 ± 0.22
PFFVFSFLFLLH | 0.114 ± 0.01 | 0.183 ± 0.023 | 0.192 ± 0.024 | 0.313 ± 0.035 | 0.194 ± 0.012 | 0.15 ± 0.029 | 0.275 ± 0.015 | 0.288 ± 0.054
LHASCVYTILLV | 0.427 ± 0.035 | 0.4584 ± 0.0012 | 0.351 ± 0.03 | 0.499 ± 0.0092 | 0.323 ± 0.019 | 0.304 ± 0.019 | 0.451 ± 0.0082 | 0.389 ± 0.0049
CRLATILRITAL | 0.574 ± 0.028 | 0.665 ± 0.026 | 0.552 ± 0.022 | 0.658 ± 0.021 | 0.193 ± 0.008 | 0.241 ± 0.031 | 0.4445 ± 0.00077 | 0.384 ± 0.018
RLLFFVFLSSRF | 0.287 ± 0.019 | 0.268 ± 0.014 | 0.33 ± 0.025 | 0.472 ± 0.0093 | 0.489 ± 0.04 | 0.329 ± 0.035 | 0.4212 ± 0.0027 | 0.407 ± 0.0066
VSCFIVSFWVFL | 0.389 ± 0.0086 | 0.461 ± 0.033 | 0.355 ± 0.02 | 0.546 ± 0.008 | 0.309 ± 0.034 | 0.323 ± 0.031 | 0.495 ± 0.052 | 0.471 ± 0.012
TVWRRIRHACAH | 0.597 ± 0.023 | 0.683 ± 0.0099 | 0.596 ± 0.013 | 0.702 ± 0.035 | 0.193 ± 0.0082 | 0.226 ± 0.015 | 0.365 ± 0.0047 | 0.376 ± 0.038
LVRGGLTNLFLF | 0.664 ± 0.046 | 0.78 ± 0.019 | 0.644 ± 0.024 | 0.7829 ± 0.0056 | 0.181 ± 0.0012 | 0.194 ± 0.032 | 0.47 ± 0.016 | 0.316 ± 0.032
